From article PMC5458082, “Fibril polymorphism affects immobilized non-amyloid flanking domains of huntingtin exon1 rather than its polyglutamine core” (Nature Communications, 2017)

B1: mutant huntingtin exon1 with a 44-residue polyQ domain, released from the MBP fusion protein by Factor Xa (domain or fragment)
chain: MATLEKLMKAFESLKSFQQQQQQQQQQQQQQQQQQQQQQQQQQQQQQQQQQQQQQQQQQQQPPPPPPPPPPPQLPQPPPQAQPLLPQPQPPPPPPPPPPGPAVAEEPLHRPSGS
notes: huntingtin exon1; The polyQ domain is expanded to 44 Gln against the UniProt entry. numbers count on: this Q44 construct from Met1; linker before the C-terminal His6, translated from the printed DNA; Uniformly 13C,15N-labelled for the ssNMR samples; Forms narrow (~6 nm) fibrils at 37 °C and wide (~15 nm) fibrils at 22 °C; both are the same chain; also called htt exon1; mutant htt exon1; source: …
B2: htt^NTQ23P10K2 peptide (peptide)
peptide: MATLEKLMKAFESLKSFQQQQQQQQQQQQQQQQQQQQQQQPPPPPPPPPPKK
notes: written out from the printed formula Q23P10K2: 23 Gln, 10 Pro, 2 Lys; also called shorter peptides with a 23-residue polyQ domain

Key:
[1] = biological target: the molecule itself; assay: fibril formation, seen by negative-stain TEM + FTIR + MAS solid-state NMR; htt exon1 released from the MBP fusion by Factor Xa at 22 or 37 °C in PBS pH 7.4 with 0.02% sodium azide; mature fibrils pelleted and washed
[2] = biological target: B1; assay: seeded and unseeded aggregation kinetics (ThT fluorescence + HPLC-based sedimentation assay); disaggregated htt^NTQ23P10K2 peptide in PBS pH 7.0 at 37 °C, with or without 20 mol-% sonicated htt exon1 fibril seeds formed at 22 or 37 °C; conditions: both partners purified

Binder | binding result [1] | binding result [2]
B1 | binds | 
B2 |  | binds
